Earlier results, collected in publication PMC1775043.

Target: hnRNP A2 (Homo sapiens) (UniProt P22626)
Test: FCS

Q: Which Kd does the source give for hnRNP A2 (from UniProt P22626) here?
A: 0.1 nM
